The data set deals with the molecule itself. In words: SEC.

B1: PV-2C-[change] (poliovirus 2C^ATPase residues 116–329) (domain or fragment)
chain: SKHRIEPVCLLVHGSPGTGKSVATNLIARAIAERENTSTYSLPPDPSHFDGYKQQGVVIMDDLNQNPDGADMKLFCQMVSTVEFIPPMASLEEKGILFTSNYVLASTNSSRISPPTVAHSDALARRFAFDMDIQVMNEYSRDGKLNMAMATEMCKNCHQPANFKRCCPLVCGKAIQLMDKSSRVRYSIDQITTMIINERNRRSNIGNCMEALFQ
As to B1, the “stoichiometry N” value turned out to be 4.

One may read the stoichiometry N as a count of units in the complex or per binding partner.

The values are drawn from article PMC6166989 (PLoS Pathogens, 2018).
